Measurements published in patent publication US20240294640A1 (published 2024).
Like-named read-outs stand apart in the source and are kept apart here.

Assays:
[1] = biological target: T1, CD3 naturally expressed on Jurkat cells (human, UniProt P07766 23-207); experiment: FACS
[2] = biological target: T1, CD3 naturally expressed on Jurkat cells; experiment: FACS; remark: listed apart in the source

T1 sequence (P07766 23-207): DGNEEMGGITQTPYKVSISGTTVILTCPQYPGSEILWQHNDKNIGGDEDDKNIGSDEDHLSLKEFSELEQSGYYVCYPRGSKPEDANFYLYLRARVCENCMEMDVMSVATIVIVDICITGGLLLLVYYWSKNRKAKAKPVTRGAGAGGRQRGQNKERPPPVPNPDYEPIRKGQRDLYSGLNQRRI

Row | EC50 [1] [nM] | EC50 [2] [nM] | Binder
1 | 133 | – | QP374437481461 (antibody) chain 1: not shown chain 2: MEFGLSWLFLVAILKGVQCQVQLVQSGAEVKKPGASVKVSCKASGYTFTSYIMHWVRQAPGQGLEWMGYINPYNDGTKYNEKFKGRVTMTRDTSTSTVYMELSSLRSEDTAVYYCARLGFTTRNAMDYWGQGTLVTVSSASTKGPSVFPLAPSSKSTSGGTAALGCLVKDYFPEPVTVSWNSGALTSGVHTFPAVLQSSGLYSLSSVVTVPSSSLGTQTYICNVNHKPSNTKVDKKVEPKSCESKYGPPCPPCPAPEFLGGPSVFLFPPKPKDTLMISRTPEVTCVVVDVSQEDPEVQFNWYVDGVEVHNAKTKPREEQFNSTYRVVSVLTVLHQDWLNGKEYKCKVSNKGLPSSIEKTISKAKGQPREPQVYTLPPSQEEMTKNQVSLSCAVKGFYPSDIAVEWESNGQPENNYKTTPPVLDSDGSFFLVSRLTVDKSRWQEGNVFSCSVMHEALHNHYTQKSLSLSLGGSSDYKDDDDK chain 3: not shown
2 | 172 | – | QP372337241461 (antibody) chain 1: MEFGLSWLFLVAILKGVQCQVQLVQSGAEVKKPGASVKVSCKASGYTFTSYIMHWVRQAPGQGLEWMGYINPYNDGTKYNEKFKGRVTMTRDTSTSTVYMELSSLRSEDTAVYYCARLGFTTRNAMDYWGQGTLVTVSSASTKGPSVFPLAPSSKSTSGGTAALGCLVKDYFPEPVTVSWNSGALTSGVHTFPAVLQSSGLYSLSSVVTVPSSSLGTQTYICNVNHKPSNTKVDKKVEPKSCGGGGSGGGGSGGGGSEVQLLESGGGLVQPGGSLKLSCAASGFTFNTYAMNWVRQAPGKGLEWVARIRSKYNNYATYYADSVKDRFTISRDDSKNTAYLQMNNLKTEDTAVYYCVRHGNFGNSYVSWFAYWGQGTLVTVSSGGGGSGGGGSGGGGSESKYGPPCPPCPAPEFLGGPSVFLFPPKPKDTLMISRTPEVTCVVVDVSQEDPEVQFNWYVDGVEVHNAKTKPREEQFNSTYRVVSVLTVLHQDWLNGKEYKCKVSNKGLPSSIEKTISKAKGQPREPQVYTLPPSQEEMTKNQVSLSCAVKGFYPSDIAVEWESNGQPENNYKTTPPVLDSDGSFFLVSRLTVDKSRWQEGNVFSCSVMHEALHNHYTQKSLSLSLGGSSDYKDDDDK chain 2: not shown chain 3: not shown

Second part, the binder before the results:

Row | Binder | EC50 [1] [nM] | EC50 [2] [nM]
3 | QP090837493746 (bispecific antibody) chain 1: not shown chain 2: not shown chain 3: QVQLVQSGAEVKKPGASVKVSCKASGYTFTSYIMHWVRQAPGQGLEWMGYINPYNDGTKYNEKFKGRVTMTRDTSTSTVYMELSSLRSEDTAVYYCARLGFTTRNAMDYWGQGTLVTVSSASTKGPSVFPLAPSSKSTSGGTAALGCLVKDYFPEPVTVSWNSGALTSGVHTFPAVLQSSGLYSLSSVVTVPSSSLGTQTYICNVNHKPSNTKVDKKVEPKSC | – | 64.3
4 | QP091037493746 (bispecific antibody) chain 1: not shown chain 2: not shown chain 3: QVQLVQSGAEVKKPGASVKVSCKASGYTFTSYIMHWVRQAPGQGLEWMGYINPYNDGTKYNEKFKGRVTMTRDTSTSTVYMELSSLRSEDTAVYYCARLGFTTRNAMDYWGQGTLVTVSSASTKGPSVFPLAPSSKSTSGGTAALGCLVKDYFPEPVTVSWNSGALTSGVHTFPAVLQSSGLYSLSSVVTVPSSSLGTQTYICNVNHKPSNTKVDKKVEPKSC | – | 34
5 | QP090937493746 (bispecific antibody) chain 1: not shown chain 2: not shown chain 3: QVQLVQSGAEVKKPGASVKVSCKASGYTFTSYIMHWVRQAPGQGLEWMGYINPYNDGTKYNEKFKGRVTMTRDTSTSTVYMELSSLRSEDTAVYYCARLGFTTRNAMDYWGQGTLVTVSSASTKGPSVFPLAPSSKSTSGGTAALGCLVKDYFPEPVTVSWNSGALTSGVHTFPAVLQSSGLYSLSSVVTVPSSSLGTQTYICNVNHKPSNTKVDKKVEPKSC | – | 21.9
